Earlier results in PMC6515277.
Read-outs that look alike come from different tables or passages of the source.

Key:
[1] = molecular target: merlin CTD CTD (Homo sapiens) (UniProt P35240); experiment: ITC
[2] = molecular target: merlin CTD CTD (Homo sapiens) (UniProt P35240); experiment: ITC; remark: listed apart in the source

- Kd [1]: 4 µM
- Kd [2]: 4 µM
Substance: merlin FERM FERM (from UniProt P35240)
